Measurements from publication PMC11311238.

Molecular target: phycobilisome core (CK) of allophycocyanin cylinders from a Synechocystis PCC 6803 mutant lacking the rods (Synechocystis sp. PCC 6803 (endogenous in the rod-less mutant)) (UniProt Q01951)

fraction of the decay of excited CK bilins that is quenched (112 ps component) in CK-NTD, transient absorption with excitation at 694 nm: 76%
B1: N-terminal domain (NTD) of the orange carotenoid protein (OCP) binding canthaxanthin (holo-NTD) (domain or fragment)
chain: VPATIARFSQLNAEDQLALIWFAYLEMGKTLTIAAPGAASMQLAENALKEIQAMGPLQQTQAMCDLANRADTPLCRTYASWSPNIKLGFWYRLGELMEQGFVAPIPAGYQLSANANAVLATIQGLESGQQITVLRNAVVDMGFTA
